35 sequences from the Immune Epitope Database (IEDB) can be followed below.

Common to all, as to test: IEDB peptide-MHC binding, purified MHC/competitive/radioactivity; filed as Kd, often an IC50 or EC50 that approximates it; ≥ and ≤ were set here for values at or beyond the usual limits of such assays
The target in assay [1] is HLA-A*02:02.
Assay [2] deals with HLA-A*02:03.
In assay [3] the target is HLA-A*02:06.
Where [4] appears, read: source organism: Vaccinia virus WR.
The mark [5] stands for this setting: source organism: SARS coronavirus Tor2.
Setting [6] is: source organism: Mammarenavirus choriomeningitidis.
The mark [7] stands for this setting: source organism: Mammarenavirus whitewaterense.

Take IAVITETIPI: the Kd was determined as 515 nM in assay [1] (setting [4]), 31.9 nM in assay [2] (setting [4]) and 1.04 nM in assay [3] (setting [4]).

For DVKVLAARL, the Kd came out at 6230 nM in assay [1] (setting [4]), 10700 nM in assay [2] (setting [4]) and 9990 nM in assay [3] (setting [4]).

For the sequence ILFLTLIVFT, the dissociation constant (Kd) in assay [1] (setting [5]) came out at 23.6 nM; in assay [2] (setting [5]), 1070 nM; in assay [3] (setting [5]), 703 nM.

Take ALEQYGIENT: the values for the dissociation constant Kd in assay [1] (setting [4]), in assay [2] (setting [4]) and in assay [3] (setting [4]) were 3150 nM, 2160 nM and 1270 nM, respectively.

For the sequence TLNEYKQLYT, the Kd in assay [1] (setting [4]) is 144 nM; in assay [2] (setting [4]), 773 nM; in assay [3] (setting [4]), at least 69800 nM.

KINEMVDELV: the Kd in assay [1] (setting [4]) stood at 587 nM; in assay [2] (setting [4]) it was 492 nM; in assay [3] (setting [4]) it was 3050 nM.

For the sequence SICLDYIIV, the Kd in assay [1] (setting [4]) is 1460 nM; in assay [2] (setting [4]) it was 8650 nM; in assay [3] (setting [4]), 689 nM.

Take GTGILFMEM: the equilibrium dissociation constant (Kd) was 2200 nM in assay [1] (setting [4]), 7730 nM in assay [2] (setting [4]) and 9980 nM in assay [3] (setting [4]).

Take VTTNNLLEQL: the Kd was 4690 nM in assay [1] (setting [4]), 17900 nM in assay [2] (setting [4]) and 5910 nM in assay [3] (setting [4]).

As for LTQVKELGIA, the dissociation constant (Kd) came to 11800 nM in assay [1] (setting [4]), 150 nM in assay [2] (setting [4]) and 18.1 nM in assay [3] (setting [4]).

In the case of VASDVCKKNL, the figures for the equilibrium dissociation constant (Kd) in assay [1] (setting [4]), in assay [2] (setting [4]) and in assay [3] (setting [4]) were at least 50900 nM, at least 70400 nM and at least 69800 nM, respectively.

Regarding YVPSAEDNYL, the results for the Kd in assay [1] (setting [4]), in assay [2] (setting [4]) and in assay [3] (setting [4]) were at least 70000 nM, at least 70400 nM and at least 69800 nM, respectively.

As to NVSGVPHSV, the dissociation constant Kd stood at 825 nM in assay [1] (setting [4]), 24 nM in assay [2] (setting [4]) and 278 nM in assay [3] (setting [4]).

With LLTIGLSLV, in assay [2] (source organism: Dengue virus 1 Brazil/97-11/1997), the Kd came to 4.99 nM.

As to GMSKEPGVV, the Kd in assay [2] (source organism: Dengue virus 3 Martinique/1243/1999) was 41.7 nM.

For the sequence RAFIYSIMET, the dissociation constant Kd came to 81.4 nM in assay [1] (setting [4]), 69.7 nM in assay [2] (setting [4]) and 578 nM in assay [3] (setting [4]).

With DISVNASKTI, the Kd was at least 46800 nM in assay [1] (setting [4]), 11900 nM in assay [2] (setting [4]) and at least 69800 nM in assay [3] (setting [4]).

Take AAAKTPVIV: the figures for the Kd in assay [1] (setting [4]), in assay [2] (setting [4]) and in assay [3] (setting [4]) were 1900 nM, 1420 nM and at least 66800 nM, respectively.

Turning to NILMDSIFV, the Kd in assay [1] (setting [4]) was found to be 252 nM; in assay [2] (setting [4]), 223 nM; in assay [3] (setting [4]) it was 170 nM.

With DTGKKELALT, the Kd in assay [1] (setting [4]) was determined as 1040 nM; in assay [2] (setting [4]), 262 nM; in assay [3] (setting [4]), 6800 nM.

On to EIITGNKVKT, for which the dissociation constant (Kd) was at least 70000 nM in assay [1] (setting [4]), at least 70400 nM in assay [2] (setting [4]) and at least 69800 nM in assay [3] (setting [4]).

As to FLWLLWPVTL, the values for the Kd in assay [1] (setting [5]), in assay [2] (setting [5]) and in assay [3] (setting [5]) were 2.67 nM, 14 nM and 28.4 nM, respectively.

NLVQYRILPM: the figures for the Kd in assay [1] (setting [4]), in assay [2] (setting [4]) and in assay [3] (setting [4]) were 3990 nM, 1330 nM and at least 24500 nM, respectively.

In the case of LMGHFSWWTA, the Kd in assay [1] (setting [5]) was 19.2 nM; in assay [2] (setting [5]), 135 nM; in assay [3] (setting [5]), 97.4 nM.

As for LNQTVYSLV, the Kd is 3330 nM in assay [1] (setting [6]), 1500 nM in assay [2] (setting [6]) and 5100 nM in assay [3] (setting [6]).

LVKDESIQL: the figures for the Kd in assay [1] (setting [4]), in assay [2] (setting [4]) and in assay [3] (setting [4]) were 122 nM, 649 nM and 1400 nM, respectively.

On to TAYIGTSNWT, for which the Kd worked out at 1770 nM in assay [1] (setting [4]), 1050 nM in assay [2] (setting [4]) and 220 nM in assay [3] (setting [4]).

Turning to KTIAVSVYGA, the dissociation constant (Kd) in assay [1] (setting [4]) stood at 366 nM; in assay [2] (setting [4]) it was 224 nM; in assay [3] (setting [4]), 427 nM.

Turning to LIVAALVFL, the dissociation constant (Kd) in assay [1] (setting [5]) was 9.38 nM; in assay [2] (setting [5]) it was 136 nM; in assay [3] (setting [5]), 10.5 nM.

As for WLTPFEKEFT, the values for the Kd in assay [1] (setting [4]), in assay [2] (setting [4]) and in assay [3] (setting [4]) were 2370 nM, 1550 nM and at least 30800 nM, respectively.

With LLVAAGMEA, the figures for the Kd in assay [1] (setting [5]), in assay [2] (setting [5]) and in assay [3] (setting [5]) were 17.4 nM, 16.6 nM and 117 nM, respectively.

In the case of GLLQFIVFL, the Kd was determined as 0.6 nM in assay [1] (setting [7]), 7710 nM in assay [2] (setting [7]) and 12.4 nM in assay [3] (setting [7]).

On to SISEINEWL, for which the Kd in assay [1] (setting [4]) stood at 0.129 nM; in assay [2] (setting [4]) it was 1.84 nM; in assay [3] (setting [4]), 6.29 nM.

Consider QVLQQNNSFI, for which the Kd came out at 544 nM in assay [1] (setting [4]), 3180 nM in assay [2] (setting [4]) and 2320 nM in assay [3] (setting [4]).

Take RILGAGCFV: the equilibrium dissociation constant (Kd) in assay [1] (setting [5]) came to 24.4 nM; in assay [2] (setting [5]), 53.3 nM; in assay [3] (setting [5]) it was 38 nM.

In general, Kd refers to a measure of binding affinity in units of concentration.
